Our source for the Kd values is article PMC11156954 (2024).

In this test the target is hMRP5-Δ1-94-8xHis (human, UniProt O15440 95-1437, RED-tris-NTA 2nd Generation dye on the His tag). Put plainly: MST.
Chain of hMRP5-Δ1-94-8xHis (O15440 95-1437, stated change not applied): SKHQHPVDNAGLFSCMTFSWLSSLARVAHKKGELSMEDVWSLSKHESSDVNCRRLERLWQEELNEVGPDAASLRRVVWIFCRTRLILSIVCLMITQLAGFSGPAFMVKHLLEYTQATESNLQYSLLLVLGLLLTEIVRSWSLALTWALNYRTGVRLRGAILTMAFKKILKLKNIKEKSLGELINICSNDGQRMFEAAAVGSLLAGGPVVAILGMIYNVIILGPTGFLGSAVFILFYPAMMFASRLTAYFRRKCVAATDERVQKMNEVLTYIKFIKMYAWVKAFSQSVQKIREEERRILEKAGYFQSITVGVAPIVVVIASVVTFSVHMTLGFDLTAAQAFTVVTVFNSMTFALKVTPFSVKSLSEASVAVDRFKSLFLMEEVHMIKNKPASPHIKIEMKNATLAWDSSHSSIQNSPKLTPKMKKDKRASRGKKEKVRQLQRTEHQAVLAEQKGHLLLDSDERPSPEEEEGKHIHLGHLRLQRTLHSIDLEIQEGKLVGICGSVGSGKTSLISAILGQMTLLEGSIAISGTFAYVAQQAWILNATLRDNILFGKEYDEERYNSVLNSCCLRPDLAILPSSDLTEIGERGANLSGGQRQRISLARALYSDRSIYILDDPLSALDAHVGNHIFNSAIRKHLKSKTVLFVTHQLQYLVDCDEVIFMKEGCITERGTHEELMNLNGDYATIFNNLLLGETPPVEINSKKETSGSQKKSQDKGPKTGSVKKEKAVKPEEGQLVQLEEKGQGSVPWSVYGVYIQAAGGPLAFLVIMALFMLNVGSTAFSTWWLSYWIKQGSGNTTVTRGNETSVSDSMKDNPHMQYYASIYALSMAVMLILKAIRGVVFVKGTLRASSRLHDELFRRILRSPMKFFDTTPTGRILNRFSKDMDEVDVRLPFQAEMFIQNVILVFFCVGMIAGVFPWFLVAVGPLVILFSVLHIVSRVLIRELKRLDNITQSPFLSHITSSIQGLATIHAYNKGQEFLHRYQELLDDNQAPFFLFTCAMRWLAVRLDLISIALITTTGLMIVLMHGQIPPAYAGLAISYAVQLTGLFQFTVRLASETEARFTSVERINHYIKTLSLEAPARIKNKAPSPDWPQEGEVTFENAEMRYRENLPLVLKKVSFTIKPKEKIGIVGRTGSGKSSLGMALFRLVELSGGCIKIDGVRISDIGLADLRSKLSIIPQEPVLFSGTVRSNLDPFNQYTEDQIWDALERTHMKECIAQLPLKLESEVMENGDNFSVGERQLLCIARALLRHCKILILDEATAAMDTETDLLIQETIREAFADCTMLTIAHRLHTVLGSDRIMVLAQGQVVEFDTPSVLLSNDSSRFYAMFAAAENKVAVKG
The term Kd denotes a measure of binding affinity in units of concentration. High values mean a looser complex, low ones a tighter complex. For the molecule DIGKEYIIPSPGYRSVRERTS [Asp5-Ser25 peptide of hMRP5], binding was put at a Kd of 24.4 µM.

As to DSKFRRTRPLECQDALETAARAEGLSLDASMHSQLRILDEE [Asp35-Glu75 peptide of hMRP5], the Kd amounted to 34.6 µM.

In turn, CSKFRRTRPLECQDALETAARAEGLSLDASMHSQLRILDEC [MRP5 potential peptide inhibitor (M5PI)] displayed a Kd of 2.66 µM.

RTRPLECQDALETAARAEGLSLDASMHSQLR [Arg40-Arg70 peptide of hMRP5] came in with a Kd of 50.7 µM.

Turning to CQDALETAARAEGLSLDAS [Cys46-Ser64 peptide of hMRP5], binding was put at a Kd of 24.1 µM.
